Measurements published in article PMC8459920 (Molecular & Cellular Proteomics : MCP, 2021).

Target: T1, Cullin-5 (Cul5) (UniProt Q93034 1-780)
T1 construct: also called full-length Cul5
T1 sequence: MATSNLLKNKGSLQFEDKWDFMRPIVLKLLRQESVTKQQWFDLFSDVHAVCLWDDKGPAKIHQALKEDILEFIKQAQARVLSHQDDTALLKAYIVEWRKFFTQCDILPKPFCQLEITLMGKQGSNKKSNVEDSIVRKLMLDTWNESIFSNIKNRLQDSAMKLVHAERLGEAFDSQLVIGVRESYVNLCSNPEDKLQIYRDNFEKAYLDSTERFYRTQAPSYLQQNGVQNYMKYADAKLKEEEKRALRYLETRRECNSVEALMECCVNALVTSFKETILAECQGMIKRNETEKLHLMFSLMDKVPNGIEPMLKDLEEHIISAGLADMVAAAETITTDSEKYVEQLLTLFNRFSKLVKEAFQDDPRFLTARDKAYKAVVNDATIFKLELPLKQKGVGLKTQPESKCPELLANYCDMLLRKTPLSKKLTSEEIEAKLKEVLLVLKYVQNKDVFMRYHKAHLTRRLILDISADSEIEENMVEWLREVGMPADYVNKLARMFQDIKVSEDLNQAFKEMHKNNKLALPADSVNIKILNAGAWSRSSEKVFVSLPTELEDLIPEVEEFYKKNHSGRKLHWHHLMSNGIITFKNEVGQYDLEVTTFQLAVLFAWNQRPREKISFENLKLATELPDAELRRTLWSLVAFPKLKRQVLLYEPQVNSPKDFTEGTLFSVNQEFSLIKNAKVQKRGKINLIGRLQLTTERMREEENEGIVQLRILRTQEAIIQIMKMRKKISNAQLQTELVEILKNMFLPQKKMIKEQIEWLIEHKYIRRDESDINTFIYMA
Assay: cross-linking; DSSO cross-linking with LC-MS3 (XL-MS) of reconstituted complexes at ~5 uM in 20 mM HEPES pH 7.5, 300 mM NaCl, 10% glycerol; 37 °C, 30 min; cross-linked SDS-PAGE bands digested in gel with trypsin or chymotrypsin; data of the four complexes pooled
Conditions: both partners purified

B1: Rbx2 (natural protein)
chain: MADVEDGEETCALASHSGSSGSKSGGDKMFSLKKWNAVAMWSWDVECDTCAICRVQVMDACLRCQAENKQEDCVVVWGECNHSFHNCCMSLWVKQNNRCPLCQQDWVVQRIGK
notes: also called E2 docking protein Rbx2
binding result: binds
